Experimental data taken from article PMC2928791 (PLoS Pathogens, 2010).

B1: PV His-tagged VP3 (natural protein)
chain: GLPVMNTPGSNQYLTADNFQSPCALPEFDVTPPIDIPGEVKNMMELAEIDTMIPFDLSATKKNTMEMYRVRLSDKPHTDDPILCLSLSPASDPRLSHTMLGEILNYYTHWAGSLKFTFLFCGFMMATGKLLVSYAPPGADPPKKRKEAMLGTHVIWDIGLQSSCTMVVPWISNTTYRQTIDDSFTEGGYISVFYQTRIVVPLSTPREMDILGFVSACNDFSVRLLRDTTHIEQKALAQ

Assays:
[1] = biological target: CAV20 non-structural protein 2C^ATPase (wt) (coxsackie A virus 20 (CAV20)); experiment: co-IP
PV GST-2C^ATPase = biological target: T1, PV GST-2C^ATPase (poliovirus (PV; the paper's PV is type …, UniProt P03300 1128-1456); experiment: […] (50 mM Tris-HCl pH 7.5, 140 mM NaCl, 0.1% Triton X-100, […]; details: both partners purified
T1 sequence: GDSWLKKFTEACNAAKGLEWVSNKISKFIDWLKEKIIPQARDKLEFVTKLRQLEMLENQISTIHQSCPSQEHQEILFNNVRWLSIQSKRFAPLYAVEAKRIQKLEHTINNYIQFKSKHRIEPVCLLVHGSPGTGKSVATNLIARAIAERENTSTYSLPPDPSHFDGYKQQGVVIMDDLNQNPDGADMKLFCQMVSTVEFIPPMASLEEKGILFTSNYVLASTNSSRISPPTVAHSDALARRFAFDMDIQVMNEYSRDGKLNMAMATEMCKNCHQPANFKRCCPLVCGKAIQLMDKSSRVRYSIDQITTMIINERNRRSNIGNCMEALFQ

Row | Molecule | percent of the level in the CAV20 2C^ATPase and CAV20 VP3 Co-IP reaction [1] | binding result (PV GST-2C^ATPase)
1 | CAV20 structural protein VP3 (wt) (natural protein) | 100% | 
2 | B1 |  | binds
